# Measurements from PMC4749974, “New insights into the mechanism of substrates trafficking in Glyoxylate/Hydroxypyruvate reductases” (Scientific Reports, 2016).
# T1: PyaGRHPR (Pyrococcus yayanosii, UniProt F8AEA4)
# T1 construct: gene gyaR; synthetic codon-optimised gene in pET41c, E. coli BL21(DE3)-RIL; no tag mentioned; heat step 85 °C, Resource Q, Superose 12; 66 kDa homodimer
# T1 sequence (F8AEA4 1-333): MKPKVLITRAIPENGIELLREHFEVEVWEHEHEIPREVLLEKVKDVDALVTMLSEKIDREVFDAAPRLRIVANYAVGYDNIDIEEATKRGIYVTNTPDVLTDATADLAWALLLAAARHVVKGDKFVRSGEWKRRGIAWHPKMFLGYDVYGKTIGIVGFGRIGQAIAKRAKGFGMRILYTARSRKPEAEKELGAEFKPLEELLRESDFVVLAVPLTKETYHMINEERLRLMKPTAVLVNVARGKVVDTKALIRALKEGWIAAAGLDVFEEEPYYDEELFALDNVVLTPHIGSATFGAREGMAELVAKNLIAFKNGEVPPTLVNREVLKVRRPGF
# T2: PfuGRHPR (Pyrococcus furiosus, UniProt Q8U3Y2)
# T2 construct: gene gyaR; synthetic codon-optimised gene in pET41c, E. coli BL21(DE3)-RIL; no tag mentioned; heat step 85 °C, Resource Q, Superose 12; 66 kDa homodimer
# T2 sequence (Q8U3Y2 1-336): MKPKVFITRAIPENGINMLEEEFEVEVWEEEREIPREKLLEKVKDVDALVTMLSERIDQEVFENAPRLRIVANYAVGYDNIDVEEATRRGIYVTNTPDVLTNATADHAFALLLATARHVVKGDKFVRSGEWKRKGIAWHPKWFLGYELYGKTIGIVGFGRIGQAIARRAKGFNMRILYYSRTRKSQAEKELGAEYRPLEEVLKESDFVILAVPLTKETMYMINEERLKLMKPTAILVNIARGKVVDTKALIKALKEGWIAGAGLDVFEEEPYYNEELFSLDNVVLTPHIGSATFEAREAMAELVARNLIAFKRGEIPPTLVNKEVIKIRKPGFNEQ
# T3: PhoGRHPR (Pyrococcus horikoshii, UniProt O58320)
# T3 construct: gene gyaR; synthetic codon-optimised gene in pET41c, E. coli BL21(DE3)-RIL; no tag mentioned; heat step 85 °C, Resource Q, Superose 12; 66 kDa homodimer
# T3 sequence (O58320 1-334): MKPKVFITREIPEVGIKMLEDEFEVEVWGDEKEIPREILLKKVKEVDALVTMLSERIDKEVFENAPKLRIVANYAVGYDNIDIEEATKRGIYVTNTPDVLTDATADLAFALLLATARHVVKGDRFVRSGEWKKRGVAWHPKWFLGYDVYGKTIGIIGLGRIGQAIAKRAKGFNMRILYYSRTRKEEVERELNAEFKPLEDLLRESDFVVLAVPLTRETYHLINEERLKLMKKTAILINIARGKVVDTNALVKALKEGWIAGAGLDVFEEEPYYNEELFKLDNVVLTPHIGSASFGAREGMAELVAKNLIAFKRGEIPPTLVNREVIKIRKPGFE
# What was measured:
# PyaGRHPR [1] = biological target: T1, PyaGRHPR; assay: crystal structure […] Å; assay type: binding; details: copurified
# PfuGRHPR [2] = biological target: T2, PfuGRHPR; assay: crystal structure […] Å; assay type: binding
# PyaGRHPR [3] = biological target: T1, PyaGRHPR; assay: NAD(P)H absorbance at […] nm; assay type: biochemical; details: co-substrate hydroxypyruvate or glyoxylate, Tris-HCl 100 mM pH 8.0, 50 °C
# PfuGRHPR [4] = biological target: T2, PfuGRHPR; assay: NAD(P)H absorbance at […] nm; assay type: biochemical; details: co-substrate hydroxypyruvate or glyoxylate, Tris-HCl 100 mM pH 8.0, 50 °C
# PyaGRHPR [5] = biological target: T1, PyaGRHPR; assay: NAD(P)H absorbance at […] nm, substrate inhibition fit; assay type: biochemical; details: NADH 0.5 mM, Tris-HCl 100 mM pH 8.0, 50 °C
# PhoGRHPR = biological target: T3, PhoGRHPR; assay: as above; assay type: biochemical; details: NADH 0.5 mM, Tris-HCl 100 mM pH 8.0, 50 °C
# PfuGRHPR [6] = biological target: T2, PfuGRHPR; assay: as above; assay type: biochemical; details: NADH 0.5 mM, Tris-HCl 100 mM pH 8.0, 50 °C
# purified protein [7] = substrate: O=C(O)C(=O)CO; assay: purified protein; assay type: biochemical, Pyrococcus horikoshii; details: NADH 0.5 mM, Tris-HCl 100 mM pH 8.0, 50 °C
# purified protein [8] = substrate: O=CC(=O)O; assay: purified protein; assay type: biochemical, Pyrococcus horikoshii; details: NADH 0.5 mM, Tris-HCl 100 mM pH 8.0, 50 °C
# purified protein [9] = substrate: O=C(O)C(=O)CO; assay: purified protein; assay type: biochemical, Pyrococcus furiosus; details: NADH 0.5 mM, Tris-HCl 100 mM pH 8.0, 50 °C
# purified protein [10] = substrate: O=CC(=O)O; assay: purified protein; assay type: biochemical, Pyrococcus furiosus; details: NADH 0.5 mM, Tris-HCl 100 mM pH 8.0, 50 °C
# purified protein [11] = substrate: O=C(O)C(=O)CO; assay: purified protein; assay type: biochemical, Pyrococcus yayanosii; details: NADH 0.5 mM, Tris-HCl 100 mM pH 8.0, 50 °C
# purified protein [12] = substrate: O=CC(=O)O; assay: purified protein; assay type: biochemical, Pyrococcus yayanosii; details: NADH 0.5 mM, Tris-HCl 100 mM pH 8.0, 50 °C
molecule,measurement,setting,value
O=C(O)[C@H](O)CO [D-glycerate],crystal structure 2.0 Å,"PyaGRHPR [1]; ternary complex with NADP(H), active site, density did not distinguish D-glycerate from hydroxypyruvate","The PyaGRHPR structure contains D-glycerate, product of HPR activity"
O=CC(=O)O [glyoxylate],crystal structure 1.40 Å,"PfuGRHPR [2]; ternary complex with NADP(H), ligand carried over from E. coli, active site, further molecule in tunnel",the determination of the PfuGRHPR structure reveals a ternary complex in the presence of glyoxylate
NC(=O)C1=CN([C@@H]2O[C@H](COP(=O)(O)OP(=O)(O)OC[C@H]3O[C@@H](n4cnc5c(N)ncnc54)[C@H](O)[C@@H]3O)[C@@H](O)[C@H]2O)C=CC1 [NADH],KM,PyaGRHPR [3],Archaeal GRHPR presents higher affinity for NADPH compared to NADH
same,KM,PfuGRHPR [4],Archaeal GRHPR presents higher affinity for NADPH compared to NADH
O=C(O)C(=O)CO [hydroxypyruvate],PyaGRHPR / NADH,PyaGRHPR [5],760 ± 200 µM
same,PhoGRHPR / NADH,PhoGRHPR,3820 ± 680 µM
same,PfuGRHPR / NADH,PfuGRHPR [6],350 ± 140 µM
NC(=O)C1=CN([C@@H]2O[C@H](COP(=O)(O)OP(=O)(O)OC[C@H]3O[C@@H](n4cnc5c(N)ncnc54)[C@H](OP(=O)(O)O)[C@@H]3O)[C@@H](O)[C@H]2O)C=CC1 [NADPH],KM,PyaGRHPR [3],Archaeal GRHPR presents higher affinity for NADPH compared to NADH
same,crystal structure 2.0 Å,"PyaGRHPR [1]; ternary complex with D-glycerate, modelled as NADP(H), oxidation state not resolved","Both structures include a cofactor molecule, unambiguously modeled as NADP(H)"
same,KM,PfuGRHPR [4],Archaeal GRHPR presents higher affinity for NADPH compared to NADH
same,crystal structure 1.40 Å,"PfuGRHPR [2]; ternary complex with glyoxylate, copurified, modelled as NADP(H), oxidation state not resolved","Both structures include a cofactor molecule, unambiguously modeled as NADP(H)"
"PhoGRHPR (Pyrococcus horikoshii OT3) (protein, synthetic codon-optimised gene in pET41c, E. coli BL21(DE3)-RIL; no tag mentioned; heat step 85 °C, Resource Q, Superose 12; 66 kDa homodimer) MKPKVFITREIPEVGIKMLEDEFEVEVWGDEKEIPREILLKKVKEVDALVTMLSERIDKEVFENAPKLRIVANYAVGYDNIDIEEATKRGIYVTNTPDVLTDATADLAFALLLATARHVVKGDRFVRSGEWKKRGVAWHPKWFLGYDVYGKTIGIIGLGRIGQAIAKRAKGFNMRILYYSRTRKEEVERELNAEFKPLEDLLRESDFVVLAVPLTRETYHLINEERLKLMKKTAILINIARGKVVDTNALVKALKEGWIAGAGLDVFEEEPYYNEELFKLDNVVLTPHIGSASFGAREGMAELVAKNLIAFKRGEIPPTLVNREVIKIRKPGFE",Km,purified protein [7],70 ± 11 µM
same,kcat,purified protein [7],4.5 ± 0.5 s⁻¹
same,kcat/Km,purified protein [7],65000 ± 20000 M⁻¹ s⁻¹
same,Km,purified protein [8],160 ± 25 µM
same,kcat,purified protein [8],4 ± 0.5 s⁻¹
same,kcat/Km,purified protein [8],25000 ± 5000 M⁻¹ s⁻¹
"PfuGRHPR (Pyrococcus furiosus DSM 3638) (protein, synthetic codon-optimised gene in pET41c, E. coli BL21(DE3)-RIL; no tag mentioned; heat step 85 °C, Resource Q, Superose 12; 66 kDa homodimer) MKPKVFITRAIPENGINMLEEEFEVEVWEEEREIPREKLLEKVKDVDALVTMLSERIDQEVFENAPRLRIVANYAVGYDNIDVEEATRRGIYVTNTPDVLTNATADHAFALLLATARHVVKGDKFVRSGEWKRKGIAWHPKWFLGYELYGKTIGIVGFGRIGQAIARRAKGFNMRILYYSRTRKSQAEKELGAEYRPLEEVLKESDFVILAVPLTKETMYMINEERLKLMKPTAILVNIARGKVVDTKALIKALKEGWIAGAGLDVFEEEPYYNEELFSLDNVVLTPHIGSATFEAREAMAELVARNLIAFKRGEIPPTLVNKEVIKIRKPGFNEQ",Km,purified protein [9],140 ± 55 µM
same,kcat,purified protein [9],10 ± 5 s⁻¹
same,kcat/Km,purified protein [9],75000 ± 50000 M⁻¹ s⁻¹
same,Km,purified protein [10],1800 ± 25 µM
same,kcat,purified protein [10],13 ± 0.5 s⁻¹
same,kcat/Km,purified protein [10],7000 ± 500 M⁻¹ s⁻¹
"PyaGRHPR (Pyrococcus yayanosii CH1) (protein, synthetic codon-optimised gene in pET41c, E. coli BL21(DE3)-RIL; no tag mentioned; heat step 85 °C, Resource Q, Superose 12; 66 kDa homodimer) MKPKVLITRAIPENGIELLREHFEVEVWEHEHEIPREVLLEKVKDVDALVTMLSEKIDREVFDAAPRLRIVANYAVGYDNIDIEEATKRGIYVTNTPDVLTDATADLAWALLLAAARHVVKGDKFVRSGEWKRRGIAWHPKMFLGYDVYGKTIGIVGFGRIGQAIAKRAKGFGMRILYTARSRKPEAEKELGAEFKPLEELLRESDFVVLAVPLTKETYHMINEERLRLMKPTAVLVNVARGKVVDTKALIRALKEGWIAAAGLDVFEEEPYYDEELFALDNVVLTPHIGSATFGAREGMAELVAKNLIAFKNGEVPPTLVNREVLKVRRPGF",Km,purified protein [11],410 ± 110 µM
same,kcat,purified protein [11],25 ± 5 s⁻¹
same,kcat/Km,purified protein [11],60000 ± 25000 M⁻¹ s⁻¹
same,Km,purified protein [12],1500 ± 140 µM
same,kcat,purified protein [12],4.8 ± 0.2 s⁻¹
same,kcat/Km,purified protein [12],3000 ± 500 M⁻¹ s⁻¹
